Values joined by “and” are separate entries in the source; they are usually repeats but may differ in a detail not shown here. Identical values can stand only once. “Also recorded” adds a separate entry of the source. Like-named read-outs stand apart in the source and are kept apart here. Residues, ends and D or L forms follow the SMILES beside them. No end group written: not given here. *: point of attachment. 5FAM = O=C1OC2(c3ccc(O)cc3Oc3cc(O)ccc32)c2ccc(C(=O)*)cc21
B7: λ Exonuclease, full-length, untagged (enzyme)
chain: MTPDIILQRTGIDVRAVEQGDDAWHKLRLGVITASEVHNVIAKPRSGKKWPDMKMSYFHTLLAEVCTGVAPEVNAKALAWGKQYENDARTLFEFTSGVNVTESPIIYRDESMRTACSPDGLCSDGNGLELKCPFTSRDFMKFRLGGFEAIKSAYMAQVQYSMWVTRKNAWYFANYDPRMKREGLHYVVIERDEKYMASFDEIVPEFIEKMDEALAEIGFVFGEQWR

Experiments:
Redβ = target: T1, Redβ (Escherichia phage lambda, UniProt P03698); assay: Fluorescence anisotropy binding of SSB-Ct peptide to Redβ; design: species or system Bacteriophage λ; conditions: 20 nM FAM-WMDFDDDIPA, full-length Redβ, pH 7.5, 25°C
T1 sequence (P03698 1-261): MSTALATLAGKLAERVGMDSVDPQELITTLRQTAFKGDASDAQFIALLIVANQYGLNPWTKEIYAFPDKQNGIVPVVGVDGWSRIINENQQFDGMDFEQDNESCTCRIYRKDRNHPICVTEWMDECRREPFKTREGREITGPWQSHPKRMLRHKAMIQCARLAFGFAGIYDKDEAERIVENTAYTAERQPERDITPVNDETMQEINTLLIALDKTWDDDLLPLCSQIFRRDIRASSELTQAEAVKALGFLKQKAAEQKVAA

λ Exo – Redβ complex = target: T2, λ Exo – Redβ complex (Escherichia phage lambda, UniProt P03698); assay: Fluorescence anisotropy binding of SSB-Ct peptide to λ Exo–Redβ complex; design: species or system Bacteriophage λ
T2 sequence (P03698 1-261): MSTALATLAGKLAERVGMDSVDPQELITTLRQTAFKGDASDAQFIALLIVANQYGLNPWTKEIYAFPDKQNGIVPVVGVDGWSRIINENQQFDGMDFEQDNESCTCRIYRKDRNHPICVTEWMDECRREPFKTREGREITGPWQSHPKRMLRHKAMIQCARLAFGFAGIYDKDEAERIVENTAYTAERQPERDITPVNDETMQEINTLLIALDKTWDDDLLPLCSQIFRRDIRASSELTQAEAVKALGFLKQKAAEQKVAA

λ Exo = conditions: cited from earlier work
[1] = cited from earlier work; for dsDNA relative to ssDNA recombination: individual CTD mutations
[2] = cited from earlier work
GB2005 E. coli cells [3] = assay: ssDNA recombination assay; format: cell-based; conditions: % of WT colonies per 10^8 viable cells
GB2005 E. coli cells [4] = assay: dsDNA recombination assay; format: cell-based; conditions: % of WT colonies per 10^8 viable cells
ssDNA or dsDNA = conditions: cited from earlier work
[5] = target: B7; assay: crystal structure
SSB = conditions: cited from earlier work
[6] = target: T3, Redβ, full-length, untagged (wild type) (bacteriophage λ, UniProt P03698 1-261); assay: fluorescence polarisation
T3 sequence: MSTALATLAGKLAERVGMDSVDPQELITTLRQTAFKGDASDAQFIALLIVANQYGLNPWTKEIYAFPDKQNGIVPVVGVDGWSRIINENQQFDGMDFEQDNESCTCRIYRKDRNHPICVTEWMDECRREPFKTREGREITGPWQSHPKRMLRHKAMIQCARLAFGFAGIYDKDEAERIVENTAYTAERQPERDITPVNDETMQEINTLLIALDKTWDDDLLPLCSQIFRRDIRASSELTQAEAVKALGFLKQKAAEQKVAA

[7] = target: T4, complex of λ Exo and full-length untagged Redβ (bacteriophage λ, UniProt P03697;P03698); assay: fluorescence polarisation
T4 sequence 1: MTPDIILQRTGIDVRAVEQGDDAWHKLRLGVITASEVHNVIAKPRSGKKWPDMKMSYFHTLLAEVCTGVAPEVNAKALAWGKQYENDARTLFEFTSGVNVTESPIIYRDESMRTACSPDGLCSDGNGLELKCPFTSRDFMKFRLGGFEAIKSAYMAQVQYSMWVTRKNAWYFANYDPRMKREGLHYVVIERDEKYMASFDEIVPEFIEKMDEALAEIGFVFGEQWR
T4 sequence 2: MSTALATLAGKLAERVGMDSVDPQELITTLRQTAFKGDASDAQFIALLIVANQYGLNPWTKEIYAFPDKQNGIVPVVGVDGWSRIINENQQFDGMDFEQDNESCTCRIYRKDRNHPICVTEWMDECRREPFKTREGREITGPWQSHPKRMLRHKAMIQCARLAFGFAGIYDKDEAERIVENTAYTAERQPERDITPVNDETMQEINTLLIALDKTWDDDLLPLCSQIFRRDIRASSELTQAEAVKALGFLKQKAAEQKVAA

[8] = target: T5, 6His-tagged Escherichia coli exonuclease I (Escherichia coli, UniProt P04995 1-475); assay: fluorescence polarisation
T5 sequence: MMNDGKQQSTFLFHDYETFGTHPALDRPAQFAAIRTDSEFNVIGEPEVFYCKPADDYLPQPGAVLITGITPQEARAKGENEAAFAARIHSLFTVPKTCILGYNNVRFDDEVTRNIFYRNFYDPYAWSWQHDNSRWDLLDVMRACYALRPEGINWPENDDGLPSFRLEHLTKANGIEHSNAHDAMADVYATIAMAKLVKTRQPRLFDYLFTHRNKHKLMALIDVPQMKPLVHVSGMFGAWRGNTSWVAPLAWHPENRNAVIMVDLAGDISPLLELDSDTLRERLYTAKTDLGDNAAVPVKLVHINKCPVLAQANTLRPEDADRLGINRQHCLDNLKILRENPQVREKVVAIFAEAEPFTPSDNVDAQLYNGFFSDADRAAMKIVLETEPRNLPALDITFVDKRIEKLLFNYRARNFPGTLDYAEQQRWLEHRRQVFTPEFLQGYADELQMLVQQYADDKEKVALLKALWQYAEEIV

crystal structure = target: the molecule itself; assay: crystal structure

In the case of “FAM-WMDFDDDIPA [SSB-Ct peptide with the F177A mutation]”, the “binding of F177A SSB-Ct peptide to Redβ” value (Redβ) is reported as “completely failed to interact; also recorded: fails to bind”.

CC[C@H](C)[C@H](NC(=O)[C@H](CC(=O)O)NC(=O)[C@H](CC(=O)O)NC(=O)[C@H](CC(=O)O)NC(=O)[C@H](Cc1ccccc1)NC(=O)[C@H](CC(=O)O)NC(=O)[C@H](CCSC)NC(=O)[C@H](Cc1c[nH]c2ccccc12)NC(=O)c1ccc2c(c1)C(=O)OC21c2ccc(O)cc2Oc2cc(O)ccc21)C(=O)N1CCC[C@H]1C(=O)N[C@@H](Cc1ccccc1)C(=O)O [SSB-Ct, FAM-WMDFDDDIPF] (5FAM-WMDFDDDIPF-OH) showed a Kd (λ Exo – Redβ complex) of 12.8 ± 3.5 µM.

B1: Redβ^1–250: variant of Redβ lacking the C-terminal 11 residues (protein)
chain: MSTALATLAGKLAERVGMDSVDPQELITTLRQTAFKGDASDAQFIALLIVANQYGLNPWTKEIYAFPDKQNGIVPVVGVDGWSRIINENQQFDGMDFEQDNESCTCRIYRKDRNHPICVTEWMDECRREPFKTREGREITGPWQSHPKRMLRHKAMIQCARLAFGFAGIYDKDEAERIVENTAYTAERQPERDITPVNDETMQEINTLLIALDKTWDDDLLPLCSQIFRRDIRASSELTQAEAVKALGFL
For B1, the “interaction with λ Exo” value (λ Exo; Ni-spin pull down) is given as “completely disrupts the interaction with λ Exo”, the dsDNA recombination [1] is given as “completely disrupts” and the ssDNA recombination [2] is given as “completely disrupts”.

B2: E256A Redβ: Redβ variant (protein)
chain: MSTALATLAGKLAERVGMDSVDPQELITTLRQTAFKGDASDAQFIALLIVANQYGLNPWTKEIYAFPDKQNGIVPVVGVDGWSRIINENQQFDGMDFEQDNESCTCRIYRKDRNHPICVTEWMDECRREPFKTREGREITGPWQSHPKRMLRHKAMIQCARLAFGFAGIYDKDEAERIVENTAYTAERQPERDITPVNDETMQEINTLLIALDKTWDDDLLPLCSQIFRRDIRASSELTQAEAVKALGFLKQKAAAQKVAA
In the case of B2, the “SS (%): ssDNA recombination compared to WT” value (GB2005 E. coli cells [3]) is reported as 55%, the “SS (%): ssDNA recombination compared to WT” value (GB2005 E. coli cells [3]; listed as E256A) is reported as 13 to 101% and the “DS (%): dsDNA recombination compared to WT” value (GB2005 E. coli cells [4]) is reported as 69%. The “DS (%): dsDNA recombination compared to WT” value (GB2005 E. coli cells [4]; listed as E256A) was 55–106% and the “dsDNA relative to ssDNA recombination” value [1] was “decreased dsDNA more than ssDNA recombination”.

B3: Q240A (protein, UniProt P03698 1-261, looked up, variant Q240A)
Recombination protein bet: MSTALATLAGKLAERVGMDSVDPQELITTLRQTAFKGDASDAQFIALLIVANQYGLNPWTKEIYAFPDKQNGIVPVVGVDGWSRIINENQQFDGMDFEQDNESCTCRIYRKDRNHPICVTEWMDECRREPFKTREGREITGPWQSHPKRMLRHKAMIQCARLAFGFAGIYDKDEAERIVENTAYTAERQPERDITPVNDETMQEINTLLIALDKTWDDDLLPLCSQIFRRDIRASSELTAAEAVKALGFLKQKAAEQKVAA
For B3, the “interaction with λ Exo” value (λ Exo) is listed as “weakened (but did not abolish) the interaction with λ Exo” and the “dsDNA relative to ssDNA recombination” value [1] is listed as “disrupted dsDNA and ssDNA equally”.

B4: Redβ C-terminal domain (residues 183-261) (domain or fragment)
chain: AYTAERQPERDITPVNDETMQEINTLLIALDKTWDDDLLPLCSQIFRRDIRASSELTQAEAVKALGFLKQKAAEQKVAA
In the case of B4, the “interaction with ssDNA or dsDNA” value (ssDNA or dsDNA) is listed as “no interaction with ssDNA or dsDNA”, the “interaction with λ Exo” value (λ Exo; Ni-spin pull down) is listed as “clear interaction” and the binding result [5] is listed as “binds”.

B5: YbcN: Orf homolog from E. coli cryptic prophage DLP12 (protein, UniProt Q47269 1-151, looked up)
Uncharacterized protein YbcN: MNLSQDGIKLHRGNFTAIGRQIQPYLEEGKCFRMVLKPWREKRSLSQNALSHMWYSEISEYLISRGKTFATPAWVKDALKHTYLGYETKDLVDVVTGDITTIQSLRHTSDLDTGEMYVFLCKVEAWAMNIGCHLTIPQSCEFQLLRDKQEA
In the case of B5, the “requirement of SSB C-tail for interaction with SSB” value (SSB) is listed as “does require the C-tail for its interaction with SSB”.

B6: SSB C-terminal peptide, fluorescein-labeled (FAM-WMDFDDDIPF) (peptide)
peptide: {FAM}-WMDFDDDIPF
For B6, the Kd [6] was 10.6 µM, the Kd [7] was 12.8 µM and 12 µM and the Kd [8] was 0.098 µM.

For B7, the “stoichiometry N” value (crystal structure) was 3.

Reference: publication PMC6393309 (Nucleic Acids Research, 2019)
